Data from PMC4825978, “A Hox Transcription Factor Collective Binds a Highly Conserved Distal-less cis-Regulatory Module to Generate Robust Transcriptional Outcomes”.

Assays:
[1] = target: Abd-A;Exd (in Exd/Hth heterodimer);Hth (in heterodimer) (Drosophila melanogaster?;Drosophila …, UniProt P29555;P40427;O46339 261-590;1-376;1-487, ||); experiment: EMSA; Abd-A 37.5-300 nM with 75 nM Exd/Hth; highly cooperative, third slower complex; Native PAGE EMSA, probe 0.36 uM, triplicate; buffer, salt, pH and temperature not given (as previously described). Further probes (single/paired sites, Hox point mutants; percent bound) only in S4 and S5 Figs, not in the material, number of rows unknown; conditions: protein: recombinant;recombinant;recombinant; tags: His;untagged;His; copies: 1;1;1
[2] = target: T1, Exd51A (ExdN51A);Hth (in heterodimer) (Drosophila melanogaster?;Drosophila …, UniProt P40427;O46339 1-376;1-487, N291A|); experiment: EMSA; 200 nM heterodimer, no Abd-A; no significant binding; Native PAGE EMSA, probe 0.36 uM, triplicate; buffer, salt, pH and temperature not given (as previously described). Further probes (single/paired sites, Hox point mutants; percent bound) only in S4 and S5 Figs, not in the material, number of rows unknown; conditions: protein: recombinant;recombinant; tags: ;His; copies: 1;1
T1 sequence 1: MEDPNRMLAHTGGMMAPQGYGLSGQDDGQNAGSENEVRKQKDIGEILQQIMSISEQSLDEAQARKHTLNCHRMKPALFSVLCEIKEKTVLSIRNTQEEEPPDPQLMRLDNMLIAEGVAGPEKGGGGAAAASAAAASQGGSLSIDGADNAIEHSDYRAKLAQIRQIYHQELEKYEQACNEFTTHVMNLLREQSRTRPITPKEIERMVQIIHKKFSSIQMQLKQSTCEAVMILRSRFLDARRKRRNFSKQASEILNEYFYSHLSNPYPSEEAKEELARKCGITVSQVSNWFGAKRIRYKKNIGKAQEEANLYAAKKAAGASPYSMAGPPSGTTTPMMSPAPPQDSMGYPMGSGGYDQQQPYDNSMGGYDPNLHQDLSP
T1 sequence 2: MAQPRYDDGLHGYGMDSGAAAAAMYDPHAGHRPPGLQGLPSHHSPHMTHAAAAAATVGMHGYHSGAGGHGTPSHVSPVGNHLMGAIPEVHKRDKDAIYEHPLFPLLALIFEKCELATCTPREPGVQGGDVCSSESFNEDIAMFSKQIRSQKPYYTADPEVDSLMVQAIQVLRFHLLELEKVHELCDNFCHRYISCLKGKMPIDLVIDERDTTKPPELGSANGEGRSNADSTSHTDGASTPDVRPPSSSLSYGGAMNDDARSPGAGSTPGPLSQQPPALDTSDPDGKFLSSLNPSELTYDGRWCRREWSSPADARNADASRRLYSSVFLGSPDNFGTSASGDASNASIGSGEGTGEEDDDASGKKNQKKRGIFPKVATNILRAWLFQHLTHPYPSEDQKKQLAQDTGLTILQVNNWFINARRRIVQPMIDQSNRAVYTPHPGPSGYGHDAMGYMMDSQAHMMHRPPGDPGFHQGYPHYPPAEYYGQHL

[3] = target: Abd-A;Exd51A (ExdN51A);Hth (in heterodimer) (Drosophila melanogaster?;Drosophila …, UniProt P29555;P40427;O46339 261-590;1-376;1-487, |N291A|); experiment: EMSA; Abd-A 37.5-300 nM with 200 nM ExdN51A/Hth; significant cooperative complex; Native PAGE EMSA, probe 0.36 uM, triplicate; buffer, salt, pH and temperature not given (as previously described). Further probes (single/paired sites, Hox point mutants; percent bound) only in S4 and S5 Figs, not in the material, number of rows unknown; conditions: protein: recombinant;recombinant;recombinant; tags: His;;His; copies: 1;1;1
Sequence of Abd-A;Exd51A (ExdN51A);Hth (in heterodimer) (P29555 261-590, stated change not applied, one chain of several): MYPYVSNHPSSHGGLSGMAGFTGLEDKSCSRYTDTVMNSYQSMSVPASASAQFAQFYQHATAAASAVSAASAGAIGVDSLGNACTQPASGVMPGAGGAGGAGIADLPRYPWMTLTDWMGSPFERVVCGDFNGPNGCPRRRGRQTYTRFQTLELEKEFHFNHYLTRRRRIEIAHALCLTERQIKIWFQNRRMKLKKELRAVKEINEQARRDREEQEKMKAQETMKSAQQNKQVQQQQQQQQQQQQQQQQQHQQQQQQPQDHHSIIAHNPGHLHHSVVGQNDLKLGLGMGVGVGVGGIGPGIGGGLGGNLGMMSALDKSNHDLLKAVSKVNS

Sequence of Abd-A;Exd (in Exd/Hth heterodimer);Hth (in heterodimer) (P29555 261-590, one chain of several): as the sequence (P29555 261-590, stated change not applied, one chain of several) above

B1: DCRE wild-type full-length probe (dsDNA)
DNA 1: GGAATTTATGTCCGACAATATTTGGGAAATTAAATCATTCCCGCGGACAGTTTTATAGTGCGGGCGTGGC
DNA 2: GCCACGCCCGCACTATAAAACTGTCCGCGGGAATGATTTAATTTCCCAAATATTGTCGGACATAAATTCC
- binding result [1]: binds
- binding result [2]: no binding
- binding result [3]: binds
